How the values were obtained:
[1] = molecular target: T1, rat megalin (rat, UniProt P98158 26-4660); test: SPR; rat megalin or cubilin immobilised; human cysC flowed at 20-500 nM (7 concentrations); CaHBS: 10 mM HEPES, 150 mM NaCl, 1.5 mM CaCl2, 1 mM EGTA, pH 7.4; Biacore 3000; Langmuir 1:1 model, global fit; conditions: both partners purified
T1 construct: megalin, rat, purified and immobilised on the SPR chip; probably the native receptor purified from rat kidney (surmised)

[2] = molecular target: T2, rat cubilin (rat, UniProt O70244 33-3623); test: as above; conditions: both partners purified
T2 construct: cubilin, rat, purified and immobilised on the SPR chip; probably the native receptor purified from rat kidney (surmised)
T2 sequence (O70244 33-3623): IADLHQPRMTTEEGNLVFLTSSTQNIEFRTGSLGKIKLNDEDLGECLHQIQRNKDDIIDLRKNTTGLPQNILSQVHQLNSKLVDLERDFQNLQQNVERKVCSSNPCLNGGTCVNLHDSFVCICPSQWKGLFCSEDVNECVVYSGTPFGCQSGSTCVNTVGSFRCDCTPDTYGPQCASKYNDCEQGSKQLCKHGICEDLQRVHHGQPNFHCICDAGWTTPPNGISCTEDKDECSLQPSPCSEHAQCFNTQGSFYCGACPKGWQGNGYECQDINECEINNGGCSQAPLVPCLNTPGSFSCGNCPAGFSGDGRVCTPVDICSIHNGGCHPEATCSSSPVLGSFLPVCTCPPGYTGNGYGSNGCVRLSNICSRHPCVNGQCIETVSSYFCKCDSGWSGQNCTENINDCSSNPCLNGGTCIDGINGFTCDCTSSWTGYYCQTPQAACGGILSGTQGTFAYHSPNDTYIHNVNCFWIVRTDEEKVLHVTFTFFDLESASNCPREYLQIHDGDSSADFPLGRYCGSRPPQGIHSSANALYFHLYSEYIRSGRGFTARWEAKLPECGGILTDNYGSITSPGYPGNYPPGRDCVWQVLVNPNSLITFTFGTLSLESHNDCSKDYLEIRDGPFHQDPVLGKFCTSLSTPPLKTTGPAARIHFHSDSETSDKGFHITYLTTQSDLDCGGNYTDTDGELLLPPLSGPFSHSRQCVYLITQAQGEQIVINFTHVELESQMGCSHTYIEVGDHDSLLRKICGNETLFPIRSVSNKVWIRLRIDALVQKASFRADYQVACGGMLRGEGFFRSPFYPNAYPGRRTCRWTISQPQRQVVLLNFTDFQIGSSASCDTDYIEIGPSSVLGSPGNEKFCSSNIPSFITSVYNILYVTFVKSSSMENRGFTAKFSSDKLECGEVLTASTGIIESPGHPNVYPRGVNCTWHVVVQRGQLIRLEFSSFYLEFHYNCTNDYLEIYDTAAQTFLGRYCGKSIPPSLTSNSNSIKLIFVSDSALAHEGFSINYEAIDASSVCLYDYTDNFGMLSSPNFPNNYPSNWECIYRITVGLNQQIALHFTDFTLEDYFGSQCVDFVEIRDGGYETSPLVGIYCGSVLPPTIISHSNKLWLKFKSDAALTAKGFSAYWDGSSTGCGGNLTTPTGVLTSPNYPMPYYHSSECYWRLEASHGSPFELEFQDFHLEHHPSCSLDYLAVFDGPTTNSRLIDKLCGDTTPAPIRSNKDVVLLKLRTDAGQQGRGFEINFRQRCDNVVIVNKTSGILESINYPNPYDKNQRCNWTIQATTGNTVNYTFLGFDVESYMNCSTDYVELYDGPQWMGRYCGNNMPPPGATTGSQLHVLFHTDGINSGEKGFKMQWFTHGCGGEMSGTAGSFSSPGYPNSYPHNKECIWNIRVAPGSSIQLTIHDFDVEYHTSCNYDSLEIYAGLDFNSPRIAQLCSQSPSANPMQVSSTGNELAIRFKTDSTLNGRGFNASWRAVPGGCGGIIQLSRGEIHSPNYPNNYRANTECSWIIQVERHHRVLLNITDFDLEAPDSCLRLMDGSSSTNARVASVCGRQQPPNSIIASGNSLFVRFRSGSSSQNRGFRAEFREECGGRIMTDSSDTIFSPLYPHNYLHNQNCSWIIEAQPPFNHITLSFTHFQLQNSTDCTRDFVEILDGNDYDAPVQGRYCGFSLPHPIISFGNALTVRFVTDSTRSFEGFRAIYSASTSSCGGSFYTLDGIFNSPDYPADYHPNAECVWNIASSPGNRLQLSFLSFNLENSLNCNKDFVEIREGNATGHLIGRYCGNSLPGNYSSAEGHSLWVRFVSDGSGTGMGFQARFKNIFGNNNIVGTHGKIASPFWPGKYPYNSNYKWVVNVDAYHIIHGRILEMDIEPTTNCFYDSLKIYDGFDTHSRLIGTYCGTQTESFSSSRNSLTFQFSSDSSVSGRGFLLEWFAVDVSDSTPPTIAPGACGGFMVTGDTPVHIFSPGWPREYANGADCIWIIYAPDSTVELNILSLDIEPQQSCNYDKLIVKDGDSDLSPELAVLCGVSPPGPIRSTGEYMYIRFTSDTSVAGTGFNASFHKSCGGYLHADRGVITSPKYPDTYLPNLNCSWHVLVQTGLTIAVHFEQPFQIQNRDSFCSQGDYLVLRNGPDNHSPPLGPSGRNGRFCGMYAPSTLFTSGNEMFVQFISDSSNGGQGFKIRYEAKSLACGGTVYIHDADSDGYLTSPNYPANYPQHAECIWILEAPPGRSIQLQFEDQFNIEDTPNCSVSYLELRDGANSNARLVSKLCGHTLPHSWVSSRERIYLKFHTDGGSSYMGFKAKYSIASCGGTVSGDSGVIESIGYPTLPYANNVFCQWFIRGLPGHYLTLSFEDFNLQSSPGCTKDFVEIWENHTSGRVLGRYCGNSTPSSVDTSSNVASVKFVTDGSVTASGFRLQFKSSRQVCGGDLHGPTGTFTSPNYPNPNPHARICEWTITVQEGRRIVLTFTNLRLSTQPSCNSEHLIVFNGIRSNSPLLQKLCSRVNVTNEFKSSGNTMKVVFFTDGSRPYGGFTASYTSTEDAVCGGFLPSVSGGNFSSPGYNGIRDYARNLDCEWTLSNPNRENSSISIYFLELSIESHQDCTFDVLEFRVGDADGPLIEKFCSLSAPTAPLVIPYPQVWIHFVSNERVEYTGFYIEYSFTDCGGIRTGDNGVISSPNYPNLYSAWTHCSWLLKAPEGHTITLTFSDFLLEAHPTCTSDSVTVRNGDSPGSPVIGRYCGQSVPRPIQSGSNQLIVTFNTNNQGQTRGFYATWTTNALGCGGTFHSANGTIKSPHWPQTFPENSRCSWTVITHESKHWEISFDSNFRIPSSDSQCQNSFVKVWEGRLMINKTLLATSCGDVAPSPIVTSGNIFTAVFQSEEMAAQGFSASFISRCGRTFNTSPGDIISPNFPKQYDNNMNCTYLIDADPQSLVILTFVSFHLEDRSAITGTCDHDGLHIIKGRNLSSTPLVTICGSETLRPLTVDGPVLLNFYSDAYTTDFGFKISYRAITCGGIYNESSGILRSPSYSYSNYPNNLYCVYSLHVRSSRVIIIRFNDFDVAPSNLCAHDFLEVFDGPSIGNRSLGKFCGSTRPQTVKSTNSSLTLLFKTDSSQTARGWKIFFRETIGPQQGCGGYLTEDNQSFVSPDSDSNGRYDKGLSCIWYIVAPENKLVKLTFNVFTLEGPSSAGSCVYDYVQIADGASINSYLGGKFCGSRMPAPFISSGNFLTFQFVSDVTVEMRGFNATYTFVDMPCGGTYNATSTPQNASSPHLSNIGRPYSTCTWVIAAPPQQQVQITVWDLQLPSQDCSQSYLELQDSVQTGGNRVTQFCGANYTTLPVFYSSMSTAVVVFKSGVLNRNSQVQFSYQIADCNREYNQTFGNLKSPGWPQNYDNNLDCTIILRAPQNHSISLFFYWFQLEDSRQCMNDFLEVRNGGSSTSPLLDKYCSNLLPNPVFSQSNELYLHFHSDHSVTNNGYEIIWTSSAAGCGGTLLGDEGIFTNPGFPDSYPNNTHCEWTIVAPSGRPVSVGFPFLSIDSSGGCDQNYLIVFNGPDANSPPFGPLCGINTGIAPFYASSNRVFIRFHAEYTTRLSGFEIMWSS

- Kd [1]: ~32 nM
- Kd [2]: ~24 nM
B1: human cystatin C (natural protein, UniProt P01034 27-146, looked up)
chain: SSPGKPPRLVGGPMDASVEEEGVRRALDFAVGEYNKASNDMYHSRALQVVRARKQIVAGVNYFLDVELGRTTCTKTQPNLDNCPFHDQPHLKRKAFCSFQIYAVPWQGTMTLSKSTCQDA
notes: also called cysC

— publication PMC5456377, “Megalin dependent urinary cystatin C excretion in ischemic kidney injury in rats” (PLoS ONE, 2017)
